# Measured values published in paper PMC7587433, “A Giant Extracellular Matrix Binding Protein of Staphylococcus epidermidis Binds Surface-Immobilized Fibronectin via a Novel Mechanism” (mBio, 2020).
# B1: r5FG-repeats (recombinant Embp fragment, aa 6777 to 7406) (domain or fragment)
# chain: ADQKLQDAKTDAKQQITNFTGLTEPQKQALENIINQQTSRANVAKQLSHAKFLNGKMEELKVAVAKASLVRQNSNYINEDVSEKEAYEQAIAKGQEIINSENNPTISSTDINRTIQEINDAEQNLHGDNKLRQAQEIAKNEIQNLDGLNSAQITKLIQDIGRTTTKPAVTQKLEEAKAINQAMQQLKQSIADKDATLNSSNYLNEDSEKKLAYDNAVSQAEQLINQLNDPTMDISNIQAITQKVIQAKDSLHGANKLAQNQADSNLIINQSTNLNDKQKQALNDLINHAQTKQQVAEIIAQANKLNNEMGTLKTLVEEQSNVHQQSKYINEDPQVQNIYNDSIQKGREILNGTTDDVLNNNKIADAIQNIHLTKNDLHGDQKLQKAQQDATNELNYLTNLNNSQRQSEHDEINSAPSRTEVSNDLNHAKALNEAMRQLENEVALENSVKKLSDFINEDEAAQNEYSNALQKAKDIINGVPSSTLDKATIEDALLELQNARESLHGEQKLQEAKNQAVAEIDNLQALNPGQVLAEKTLVNQASTKPEVQEALQKAKELNEAMKALKTEINKKEQIKADSRYVNADSGLQANYNSALNYGSQIIATTQPPELNKDVINRATQTIKTAENNLN
# Molecular target: T1, rFN12-14 (recombinant fibronectin type III repeats 12 to 14)
# T1 construct: fibronectin, type III repeats 12 to 14; Held by its His tag on Immobilizer Nickel-Chelate plates in the adherence assays; immobilised on a C1 sensor chip in SPR
# Experiment: SPR; Biacore T200, C1 sensor chip; rFN12-14 immobilised (~870 RU); rF-, rFG-repeat or multiple repeats in HBS-EP injected at 40 μl/min; double referencing
# Details: both partners purified
binder,measurement,value
B1,Kd,10 µM
